B1: yeast 20 S proteasome subunit β4 (PRE1) (other, UniProt P22141 1-198, looked up)
chain: MDIILGIRVQDSVILASSKAVTRGISVLKDSDDKTRQLSPHTLMSFAGEAGDTVQFAEYIQANIQLYSIREDYELSPQAVSSFVRQELAKSIRSRRPYQVNVLIGGYDKKKNKPELYQIDYLGTKVELPYGAHGYSGFYTFSLLDHHYRPDMTTEEGLDLLKLCVQELEKRMPMDFKGVIVKIVDKDGIRQVDDFQAQ
B2: human proteasome subunit α3 (other, UniProt P25789 1-261, looked up)
chain: MSRRYDSRTTIFSPEGRLYQVEYAMEAIGHAGTCLGILANDGVLLAAERRNIHKLLDEVFFSEKIYKLNEDMACSVAGITSDANVLTNELRLIAQRYLLQYQEPIPCEQLVTALCDIKQAYTQFGGKRPFGVSLLYIGWDKHYGFQLYQSDPSGNYGGWKATCIGNNSAAAVSMLKQDYKEGEMTLKSALALAIKVLNKTMDVSKLSAEKVEIATLTRENGKTVIRVLKQKEVEQLIKKHEEEEAKAEREKKEKEQKEKDK
notes: whole, on cells; endogenous, cross-linked inside intact 293 cells, then purified with the HB-tagged bait under denaturing conditions; also called alpha3; alpha-3
B3: yeast 20 S proteasome subunit β3 (PUP3) (other, UniProt P25451 1-205, looked up)
chain: MSDPSSINGGIVVAMTGKDCVAIACDLRLGSQSLGVSNKFEKIFHYGHVFLGITGLATDVTTLNEMFRYKTNLYKLKEERAIEPETFTQLVSSSLYERRFGPYFVGPVVAGINSKSGKPFIAGFDLIGCIDEAKDFIVSGTASDQLFGMCESLYEPNLEPEDLFETISQALLNAADRDALSGWGAVVYIIKKDEVVKRYLKMRQD
B4: yeast 20 S proteasome subunit β6 (PRE7) (other, UniProt P23724 20-241, looked up)
chain: QFNPYGDNGGTILGIAGEDFAVLAGDTRNITDYSINSRYEPKVFDCGDNIVMSANGFAADGDALVKRFKNSVKWYHFDHNDKKLSINSAARNIQHLLYGKRFFPYYVHTIIAGLDEDGKGAVYSFDPVGSYEREQCRAGGAAASLIMPFLDNQVNFKNQYEPGTNGKVKKPLKYLSVEEVIKLVRDSFTSATERHIQVGDGLEILIVTKDGVRKEFYELKRD
notes: mature
B5: human proteasome subunit Rpn9 (other, UniProt Q9UNM6 1-376, looked up)
chain: MKDVPGFLQQSQNSGPGQPAVWHRLEELYTKKLWHQLTLQVLDFVQDPCFAQGDGLIKLYENFISEFEHRVNPLSLVEIILHVVRQMTDPNVALTFLEKTREKVKSSDEAVILCKTAIGALKLNIGDLQVTKETIEDVEEMLNNLPGVTSVHSRFYDLSSKYYQTIGNHASYYKDALRFLGCVDIKDLPVSEQQERAFTLGLAGLLGEGVFNFGELLMHPVLESLRNTDRQWLIDTLYAFNSGNVERFQTLKTAWGQQPDLAANEAQLLRKIQLLCLMEMTFTRPANHRQLTFEEIAKSAKITVNEVELLVMKALSVGLVKGSIDEVDKRVHMTWVQPRVLDLQQIKGMKDRLEFWCTDVKSMEMLVEHQAHDILT
notes: whole, on cells; endogenous, cross-linked inside intact 293 cells, purified with the HB-tagged bait; also called Q9UNM6

How the values were obtained:
[1] = target: B3; assay: DSSO XL-MS of purified yeast 20S proteasome
HB-Rpt6 = target: T1, HB-Rpt6 (human, UniProt P62195 2-406); assay: in vivo azide-A-DSBSO XL-MS of HB-tag purified human proteasome
T1 construct: whole, on cells; stably expressed in 293 cells; used for all links whose Bait column says Rpt6; residue numbers count on P62195, not on the tagged construct; also called Rpt6 (bait); HB tagged proteasome subunit Rpt6; not shown: HB (His-bio) tag, written before Rpt6

[2] = target: T2, yeast 20 S proteasome subunit α3 (PRE9) (yeast, UniProt P23638 1-258); assay: DSSO XL-MS of purified yeast 20S proteasome
T2 sequence (looked up): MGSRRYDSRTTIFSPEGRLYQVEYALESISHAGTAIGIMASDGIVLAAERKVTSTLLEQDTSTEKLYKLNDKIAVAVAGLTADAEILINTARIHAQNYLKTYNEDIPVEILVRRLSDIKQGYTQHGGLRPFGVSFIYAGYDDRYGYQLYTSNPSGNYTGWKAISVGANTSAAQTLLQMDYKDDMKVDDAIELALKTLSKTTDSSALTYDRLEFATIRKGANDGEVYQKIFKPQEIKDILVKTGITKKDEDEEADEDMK

[3] = target: T3, yeast 20 S proteasome subunit α6 (PRE5) (yeast, UniProt P40302 1-234); assay: DSSO XL-MS of purified yeast 20S proteasome
T3 sequence (looked up): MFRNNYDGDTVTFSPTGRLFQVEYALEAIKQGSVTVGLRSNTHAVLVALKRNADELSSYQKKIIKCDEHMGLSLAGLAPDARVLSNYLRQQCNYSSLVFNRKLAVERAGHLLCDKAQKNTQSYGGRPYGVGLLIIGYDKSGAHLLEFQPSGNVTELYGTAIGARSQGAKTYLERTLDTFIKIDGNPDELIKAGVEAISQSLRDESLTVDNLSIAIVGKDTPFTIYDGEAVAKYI

[4] = target: T4, human proteasome subunit Rpn5 (human, UniProt O00232 2-456); assay: in vivo azide-A-DSBSO XL-MS of HB-tag purified human proteasome
T4 construct: whole, on cells; endogenous, cross-linked inside intact 293 cells, purified with the HB-tagged bait; also called O00232

B1
binding result [1]: binds

B2
binding result (HB-Rpt6): binds

B3
binding result [2]: binds

B4
binding result [3]: binds

B5
binding result [4]: binds
